Data: patent US20190330277A1

Legend:
Assay in all cases: ELISA, variant from culture supernatant on Ni-NTA plate [continued]
[1] = molecular target: sc9-10_DS-CAV1_bRSV(RB94)_Fd_fp1_ig1
391-2-DS-Cav1-BZGJ9_gyc2 = molecular target: 391-2-DS-Cav1-BZGJ9_gyc2
[2] = molecular target: 391-2-DS-Cav1-BZGJ9_gyc10

With motavizumab (antibody) the ELISA binding value [1] was 0.545, the ELISA binding value (391-2-DS-Cav1-BZGJ9_gyc2) was 1.58 and the ELISA binding value [2] was 0.461.
